Assay results from patent US20180186853A1 (HANMI PHARM, published 2018).
Positions of bridges follow the written chain, without caps; N, C: chain ends. Non-standard residues stand in square brackets, D forms with d. No end group written: not given here. Aib = CC(C)(N)C(=O)O

Molecular target: human glucagon receptor (human, UniProt P47871 26-477)
Test: cell-based or functional assay

human glucagon receptor, sequence (P47871 26-477): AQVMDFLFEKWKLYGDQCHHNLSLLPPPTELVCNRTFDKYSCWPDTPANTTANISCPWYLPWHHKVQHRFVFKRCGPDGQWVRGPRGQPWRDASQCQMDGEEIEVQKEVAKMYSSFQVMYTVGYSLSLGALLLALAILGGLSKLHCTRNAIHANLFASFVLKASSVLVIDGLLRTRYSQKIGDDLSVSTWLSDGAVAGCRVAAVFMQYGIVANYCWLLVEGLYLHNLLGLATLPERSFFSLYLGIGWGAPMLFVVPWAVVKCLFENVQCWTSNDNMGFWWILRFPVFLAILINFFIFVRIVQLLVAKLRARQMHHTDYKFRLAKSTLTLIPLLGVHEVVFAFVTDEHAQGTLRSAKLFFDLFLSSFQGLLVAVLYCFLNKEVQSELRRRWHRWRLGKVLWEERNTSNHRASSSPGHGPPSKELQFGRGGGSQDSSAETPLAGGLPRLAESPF

| Binder | In vitro Activity (Relative Activity of SEQ ID NO: 1, %), from cAMP EC50 [%] |
| --- | --- |
| Y[Aib]QGTFTSDYSKYLDSCDAQDFVVWLINT [glucagon derivative of SEQ ID NO: 9] | < 0.1 |
| Y[Aib]QGTFTSDYSKYLDSCDADDFVVWLINT [glucagon derivative of SEQ ID NO: 10] | < 0.1 |
| Y[Aib]QGTFTSDYSKYLDEKCAKEFVQWLMNT (not fully specified (bridges)) [glucagon derivative of SEQ ID NO: 11] | 4.6 |
| Y[Aib]QGTFTSDYSKYLDEKRAKEFVQWLMNTC (bridge 16-20; also: ring between positions 16 and 20, kind not given here) [glucagon derivative of SEQ ID NO: 12] | 56.3 |
| Y[Aib]QGTFTSDYSCYLDSRRAQDFVQWLMNT [glucagon derivative of SEQ ID NO: 13] | 5.2 |
| Y[Aib]QGTFTSDYSKYLDCKRAKEFVQWLMNT (not fully specified (bridges)) [glucagon derivative of SEQ ID NO: 14] | 18.1 |
| Y[Aib]QGTFTSDYSKYLCEKRAQDFVVWLMNT [glucagon derivative of SEQ ID NO: 15] | 1.1 |
| Y[Aib]QGTFTSDYSKYLDCRRAQVFVQWLMRT [glucagon derivative of SEQ ID NO: 16] | 4.2 |
| Y[Aib]QGTFTSDYSKYLDCVRAQDFVQWLMRT [glucagon derivative of SEQ ID NO: 17] | 23.2 |
| Y[Aib]QGTFTSDYSKYLDSRRACDFRLWLMNT [glucagon derivative of SEQ ID NO: 18] | < 0.1 |
| Y[Aib]QGTFTSDYSKYLCEKRAKEFVQWLMNT (bridge 16-20; also: ring between positions 16 and 20, kind not given here) [glucagon derivative of SEQ ID NO: 19] | 12.1 |
| Y[Aib]QGTFTSDYSKYLDECRAKEFVQWLMNT (bridge 16-20; also: ring between positions 16 and 20, kind not given here) [glucagon derivative of SEQ ID NO: 20] | 300 |
| Y[Aib]QGTFTSDYSKYLDEKCAKEFVQWLMNT (bridge 16-20; also: ring between positions 16 and 20, kind not given here) [glucagon derivative of SEQ ID NO: 21] | 57.8 |
| Y[Aib]QGTFTSDYSKYLDEKRCKEFVQWLMNT (bridge 16-20; also: ring between positions 16 and 20, kind not given here) [glucagon derivative of SEQ ID NO: 22] | 148 |
| Y[Aib]QGTFTSDYSKYCDEKRAKEFVQWLMNT (bridge 16-20; also: ring between positions 16 and 20, kind not given here) [glucagon derivative of SEQ ID NO: 23] | 76.8 |
| Y[Aib]QGTFTSDYSKCLDEKRAKEFVQWLMNT (bridge 16-20; also: ring between positions 16 and 20, kind not given here) [glucagon derivative of SEQ ID NO: 24] | 58 |
| Y[Aib]QGTFTSDYSKYLDEKRAKCFVQWLMNT (bridge 16-20; also: ring between positions 16 and 20, kind not given here) [glucagon derivative of SEQ ID NO: 25] | 46.9 |
| W[Aib]QGTFTSDYSKYLDECRAKDFVQWLMNT (bridge 16-20; also: ring between positions 16 and 20, kind not given here) [glucagon derivative of SEQ ID NO: 26] | 1 |
| Y[Aib]QGTFVSDYSKYLDECRAKDFVQWLMNT (bridge 16-20; also: ring between positions 16 and 20, kind not given here) [glucagon derivative of SEQ ID NO: 27] | 93.6 |
| W[Aib]QGTFVSDYSKYLDECRAKDFVQWLMNT (bridge 16-20; also: ring between positions 16 and 20, kind not given here) [glucagon derivative of SEQ ID NO: 28] | < 0.1 |

| Binder | In vitro Activity (Relative Activity of SEQ ID NO: 1, %), from cAMP EC50 [%] |
| --- | --- |
| HSQGTFTSDYSKYLDCDRAQDFVQWLMNT [glucagon derivative of SEQ ID NO: 2] | 0.6 |
| Y[Aib]QGTFTSDYSKCLDERRAKDFVQWLMNT (bridge 16-20; also: ring between positions 16 and 20, kind not given here) [glucagon derivative of SEQ ID NO: 29] | 61.3 |
| W[Aib]QGTFTSDYSKCLDERRAKDFVQWLMNT (bridge 16-20; also: ring between positions 16 and 20, kind not given here) [glucagon derivative of SEQ ID NO: 30] | 0.3 |
| Y[Aib]QGTFTSDYSKYLDCKRAKEFVQWLMNT (bridge 17-21; also: ring between positions 17 and 21, kind not given here) [glucagon derivative of SEQ ID NO: 31] | 6.3 |
| SQGTFTSDYSKYLDECRAKEFVQWLMNT (lactam 15-19) [glucagon derivative of SEQ ID NO: 32] | 0.7 |
| YXQGTFTSDYSKYLDSRRAQDFVQWLMNT (X at position 2 = aminoisobutyric acid (Aib)) [glucagon derivative of SEQ ID NO: 33] | 108 |
| W[Aib]QGTFTSDYSKYCDERRAKEFVQWLMNT (bridge 16-20; also: ring between positions 16 and 20, kind not given here) [glucagon derivative of SEQ ID NO: 34] | 0.2 |
| Y[Aib]QGTFTSDYSKYCDERRAKEFVQWLMNT (bridge 16-20; also: ring between positions 16 and 20, kind not given here) [glucagon derivative of SEQ ID NO: 35] | 17.7 |
| Y[Aib]QGTFTSDCSKYLDERRAKEFVQWLMNT (bridge 16-20; also: ring between positions 16 and 20, kind not given here) [glucagon derivative of SEQ ID NO: 36] | 9.9 |
| Y[Aib]QGTFTSDYSKYLDERRAKEFVQWLMNTC (bridge 16-20; also: ring between positions 16 and 20, kind not given here) [glucagon derivative of SEQ ID NO: 37] | 226 |
| Y[Aib]QGTFCSDYSKYLDERRAKEFVQWLMNT (bridge 16-20; also: ring between positions 16 and 20, kind not given here) [glucagon derivative of SEQ ID NO: 38] | 167 |
| HSQGTFTSDYSKYLDCERAQDFVQWLMNT [glucagon derivative of SEQ ID NO: 3] | 6.1 |
| Y[Aib]QGTFVSDCSKYLDERRAKDFVQWLMNT (bridge 16-20; also: ring between positions 16 and 20, kind not given here) [glucagon derivative of SEQ ID NO: 39] | 3.7 |
| Y[Aib]QGTFVSDYSKYLDERRAKDFVQWLMNTC (bridge 16-20; also: ring between positions 16 and 20, kind not given here) [glucagon derivative of SEQ ID NO: 40] | 40.8 |
| Y[Aib]QGTFCSDYSKYLDERRAKDFVQWLMNT (bridge 16-20; also: ring between positions 16 and 20, kind not given here) [glucagon derivative of SEQ ID NO: 41] | 45.2 |
| Y[Aib]QGTFCSDYSKYLDSRRAQDFVQWLMNT [glucagon derivative of SEQ ID NO: 42] | 37.9 |
| Y[Aib]QGTFTSDCSKYLDSRRAQDFVQWLMNT [glucagon derivative of SEQ ID NO: 43] | 1.6 |
| YXQGTFTSDYSKYLDSRRAQDFVQWLMNTC (X at position 2 = aminoisobutyric acid (Aib)) [glucagon derivative of SEQ ID NO: 44] | 75.4 |
| HSQGTFTSDYSKYLDSCDAQDFVQWLMNT [glucagon derivative of SEQ ID NO: 4] | < 0.1 |
| HSQGTFTSDYSKYLDSCEAQDFVQWLMNT [glucagon derivative of SEQ ID NO: 5] | 0.3 |
